Results as given in patent publication US20110263014.
Positions count from the first letter of the chain named.

Assays:
[1] = target: T1, mouse Nanog (mNanog) (UniProt Q80Z64)
T1 sequence: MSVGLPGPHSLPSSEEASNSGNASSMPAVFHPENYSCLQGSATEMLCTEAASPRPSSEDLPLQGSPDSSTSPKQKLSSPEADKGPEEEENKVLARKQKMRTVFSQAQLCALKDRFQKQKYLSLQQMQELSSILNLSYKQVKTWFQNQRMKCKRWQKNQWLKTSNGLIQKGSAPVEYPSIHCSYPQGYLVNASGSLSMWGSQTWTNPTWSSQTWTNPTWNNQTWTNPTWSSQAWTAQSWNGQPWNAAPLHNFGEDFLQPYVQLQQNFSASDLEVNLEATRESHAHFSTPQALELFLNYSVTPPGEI

[2] = target: T2, mNanog (D67G) (UniProt Q80Z64)
T2 sequence: T1 sequence with D67G

Substance: recombinant caspase-9
- cleavage of immunoprecipitated mNanog by recombinant caspase [1]: Only caspase-9 effectively cleaved mNanog into a 27 kDa fragment
- in vitro caspase cleavage assay [1]: caspase-9 can effectively cleave in vitro-translated mNanog
- cleavage of immunoprecipitated mNanog (D67G) by recombinant caspase [2]: Mutation D67G in mNanog greatly diminished cleavage of mNanog by caspase-9
